Measurements as given in patent US20080070838A1, “Growth Factor Treatment for Asthma” (University of Southampton, priority 2004, published 2008).
Entries after “also recorded” stand apart in the source; their conditions may differ.

What was measured:
[1] = system: primary bronchial epithelial cells from normal subjects; assay: Proliferation assay (methylene blue), primary bronchial epithelial cell cultures from normal controls; assay type: cell-based, human; conditions: 1.7 nM EGF for 24 hours vs serum free medium, FIG. 2a
From the text: (§1) Bronchial brushings were taken from non-atopic, non-asthmatic control subjects and asthmatic subjects. Volunteers were characterised according to symptoms, pulmonary function and medication. Assessment of asthma severity was in accordance with the GINA guidelines on the diagnosis and management of asthma (Bousquet (2000) Global initiative for asthma (GINA) and its objectives.
(§2) Bronchial brushings were obtained by bronchoscopy using a fibreoptic bronchoscope (Olympus FB-20D, Tokyo, Japan) in accordance with standard published guidelines (Hurd S. Z. (1991) J. Allergy Clin. Immunol. 88, 808-814). Bronchial epithelial cells were obtained using a standard sterile single-sheathed nylon cytology brush (Olympus BC 9C-26101; Tokyo, Japan). […] Epithelial cell purity was assessed by performing differential cell counts on cytospins of the harvested cell suspension. […]
(§3) Cells were prepared in 24 well trays at a seeding density of a minimum of 4×10^4 cells/ml primary BECs. […] Absorbance of the eluant was determined using a Multiskan ascent plate reader after a 1:10 dilution with 1:1 ethanol:0.1% HCl to provide an absorbance within the linear range of the plate reader. Absorbance was read using a 630 nm filter and each sample was tested in duplicate. A standard curve was generated by direct cell counting to enable cell number to be related to methylene blue readings. […]

[2] = system: primary bronchial epithelial cells from asthmatic subjects; assay: Proliferation assay (methylene blue), primary bronchial epithelial cell cultures from asthmatic subjects; assay type: cell-based, human; conditions: 1.7 nM EGF for 24 hours vs serum free medium, FIG. 2b
From the text: as §1, §2, §3

B1: EGF: epithelial growth factor; wild-type mouse EGF produced in Pischia pastoris (protein)
chain: WQTGNCQPGPLERSERSGTCAGPAPFLVFSQGKSISRIDPDGTNHQQLVVDAGISADMDIHYKKERLYWVDVERQVLLRVFLNGTGLEKVCNVERKVSGLAIDWIDDEVLWVDQQNGVITVTDMTGKNSRVLLSSLKHPSNIAVDPIERLMFWSSEVTGSLHRAHLKGVDVKTLLETGGISVLTLDVLDKRLFWVQDSGEGSHAYIHSCDYEGGSVRLIRHQARHSLSSMAFFGDRIFYSVLKSKAIWIANKHTGKDTVRINLHPSFVTPGKLMVVHPRAQPRTEDAAKDPDPELLKQRGRPCRFGLCERDPKSHSSACAEGYTLSRDRKYCEDVNECATQNHGCTLGCENTPGSYHCTCPTGFVLLPDGKQCHELVSCPGNVSKCSHGCVLTSDGPRCICPAGSVLGRDGKTCTGCSSPDNGGCSQICLPLRPGSWECDCFPGYDLQSDRKSCAASGPQPLLLFANSQDIRHMHFDGTDYKVLLSRQMGMVFALDYDPVESKIYFAQTALKWIERANMDGSQRERLITEGVDTLEGLALDWIGRRIYWTDSGKSVVGGSDLSGKHHRIIIQERISRPRGIAVHPRARRLFWTDVGMSPRIESASLQGSDRVLIASSNLLEPSGITIDYLTDTLYWCDTKRSVIEMANLDGSKRRRLIQNDVGHPFSLAVFEDHLWVSDWAIPSVIRVNKRTGQNRVRLQGSMLKPSSLVVVHPLAKPGADPCLYRNGGCEHICQESLGTARCLCREGFVKAWDGKMCLPQDYPILSGENADLSKEVTSLSNSTQAEVPDDDGTESSTLVAEIMVSGMNYEDDCGPGGCGSHARCVSDGETAECQCLKGFARDGNLCSDIDECVLARSDCPSTSSRCINTEGGYVCRCSEGYEGDGISCFDIDECQRGAHNCGENAACTNTEGGYNCTCAGRPSSPGLSCPDSTAPSLLGEDGHHLDRNSYPGCPSSYDGYCLNGGVCMHIESLDSYTCNCVIGYSGDRCQTRDLRWWELRHAGYGQKHDIMVVAVCMVALVLLLVLGMWGTYYYRTRKQLSNPPKNPCDEPSGSVSSSGPNSSSGAAVASCPQPWFVVLEKHQDPKNGSLPADGTNGAVVDAGLSPSLQLGSVHLTSWRQKPHIDGMGTGQSCWIPPSSDRGPQEIEGNSHLPSYRPVGPEKLHSLQSANGSCHERAPDLPRQTEPVQ
In the case of B1, the “effect on cell number (proliferation)” value [1] is reported as “no effect on cell number; also recorded: unaffected” and the “effect on cell number (proliferation)” value [2] is reported as “small but significant increase in cell number; also recorded: require exogenous EGF for maximal proliferation”.
